For orientation: Kd means the free concentration of one partner at which half of the binding sites on the other are occupied at equilibrium, for simple one-to-one binding. A higher Kd goes with lower affinity.

Results on three molecules are retold here after patent USRE39433 (MEDVET SCIENCE, dated 2006).

The target in assay [1] is IL-3R α-chain co-expressed with T419A βc on COS cells (human) (UniProt P26951). In words: Scatchard (LIGAND) of 125I-IL-3 on COS cells with α-chains and T419A βc; high affinity site 1.
IL-3R α-chain co-expressed with T419A βc on COS cells (human), sequence (P26951 19-378, chain 1 of 2): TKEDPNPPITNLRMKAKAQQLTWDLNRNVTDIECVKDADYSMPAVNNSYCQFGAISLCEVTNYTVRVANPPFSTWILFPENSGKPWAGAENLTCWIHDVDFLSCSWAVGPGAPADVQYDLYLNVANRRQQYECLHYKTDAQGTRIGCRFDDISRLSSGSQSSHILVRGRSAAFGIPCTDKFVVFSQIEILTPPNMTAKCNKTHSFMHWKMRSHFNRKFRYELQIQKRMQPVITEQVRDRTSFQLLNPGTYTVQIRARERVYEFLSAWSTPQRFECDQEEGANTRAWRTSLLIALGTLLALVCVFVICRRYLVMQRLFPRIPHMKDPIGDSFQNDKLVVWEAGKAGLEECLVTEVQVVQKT
IL-3R α-chain co-expressed with T419A βc on COS cells (human), sequence (P32927 17-897 T419A, chain 2 of 2, further chain): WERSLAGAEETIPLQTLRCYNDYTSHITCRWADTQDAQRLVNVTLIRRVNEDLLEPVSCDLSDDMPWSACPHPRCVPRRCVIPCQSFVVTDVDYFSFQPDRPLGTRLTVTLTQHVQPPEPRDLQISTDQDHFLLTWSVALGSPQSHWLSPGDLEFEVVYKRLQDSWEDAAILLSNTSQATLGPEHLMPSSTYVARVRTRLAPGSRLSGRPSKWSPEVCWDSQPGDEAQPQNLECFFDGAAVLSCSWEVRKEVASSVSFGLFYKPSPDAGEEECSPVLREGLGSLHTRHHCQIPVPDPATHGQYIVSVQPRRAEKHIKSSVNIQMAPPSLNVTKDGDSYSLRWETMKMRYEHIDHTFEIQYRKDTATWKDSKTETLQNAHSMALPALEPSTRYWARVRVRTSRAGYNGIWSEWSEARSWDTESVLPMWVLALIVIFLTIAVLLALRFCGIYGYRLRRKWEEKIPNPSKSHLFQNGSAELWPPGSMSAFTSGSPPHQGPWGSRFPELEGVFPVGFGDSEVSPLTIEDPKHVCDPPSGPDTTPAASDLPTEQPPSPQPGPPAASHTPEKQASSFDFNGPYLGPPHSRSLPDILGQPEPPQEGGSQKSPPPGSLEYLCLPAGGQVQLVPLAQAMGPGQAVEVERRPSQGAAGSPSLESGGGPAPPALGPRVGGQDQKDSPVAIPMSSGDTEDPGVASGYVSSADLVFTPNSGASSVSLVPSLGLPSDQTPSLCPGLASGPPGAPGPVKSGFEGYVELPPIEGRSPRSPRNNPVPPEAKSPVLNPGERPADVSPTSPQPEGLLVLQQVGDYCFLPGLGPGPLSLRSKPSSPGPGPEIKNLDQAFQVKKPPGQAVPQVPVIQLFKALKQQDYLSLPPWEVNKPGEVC
For assay [2], the target named is IL-3R α-chain co-expressed with Y421A βc on cells (human) (UniProt P26951). In words: cell-based or functional assay.
IL-3R α-chain co-expressed with Y421A βc on cells (human), sequence (P26951 19-378, chain 1 of 2): as the sequence (P26951 19-378, chain 1 of 2) above
IL-3R α-chain co-expressed with Y421A βc on cells (human), sequence (P32927 17-897 Y421A, chain 2 of 2, further chain): as the sequence (P32927 17-897 T419A, chain 2 of 2, further chain) above, with A403T, Y405A counted along it
In assay [3] the target is IL-3R α-chain co-expressed with R418A βc on COS cells (human) (UniProt P26951). In words: Scatchard (LIGAND) of 125I-IL-3 on COS cells with α-chains and R418A βc; high affinity site 1.
IL-3R α-chain co-expressed with R418A βc on COS cells (human), sequence (P26951 19-378, chain 1 of 2): as the sequence (P26951 19-378, chain 1 of 2) above
IL-3R α-chain co-expressed with R418A βc on COS cells (human), sequence (P32927 17-897 R418A, chain 2 of 2, further chain): as the sequence (P32927 17-897 T419A, chain 2 of 2, further chain) above, with R402A, A403T counted along it
Assay [4] addresses IL-3R α-chain co-expressed with mutant ^418AAAYA^422 βc on COS cells (human) (UniProt P26951). In words: Scatchard (LIGAND) of 125I-IL-3 on COS cells with α-chains and ^418AAAYA^422 βc; high affinity site 1.
In assay [5] the target is IL-3R α-chain co-expressed with G420A βc on COS cells (human) (UniProt P26951). The experiment in a line: Scatchard (LIGAND) of 125I-IL-3 on COS cells with α-chains and G420A βc; high affinity site 1.
IL-3R α-chain co-expressed with G420A βc on COS cells (human), sequence (P26951 19-378, chain 1 of 2): as the sequence (P26951 19-378, chain 1 of 2) above
IL-3R α-chain co-expressed with G420A βc on COS cells (human), sequence (P32927 17-897 G420A, chain 2 of 2, further chain): as the sequence (P32927 17-897 T419A, chain 2 of 2, further chain) above, with A403T, G404A counted along it
In assay [6] the target is IL-3R α-chain co-expressed with N422A βc on COS cells (human) (UniProt P26951). The experiment in a line: Scatchard (LIGAND) of 125I-IL-3 on COS cells with α-chains and N422A βc; high affinity site 1.
IL-3R α-chain co-expressed with N422A βc on COS cells (human), sequence (P26951 19-378, chain 1 of 2): as the sequence (P26951 19-378, chain 1 of 2) above
IL-3R α-chain co-expressed with N422A βc on COS cells (human), sequence (P32927 17-897 N422A, chain 2 of 2, further chain): as the sequence (P32927 17-897 T419A, chain 2 of 2, further chain) above, with A403T, N406A counted along it
Assay [7] concerns the target IL-3R α-chain co-expressed with mutant ^418AAAYA^422 βc on COS cells (human) (UniProt P26951). The experiment in a line: radioligand saturation binding on transfected COS cells.
For assay [8], the target named is IL-3R α-chain co-expressed with R418A βc on COS cells (human) (UniProt P26951). The description is as above.
The target of assay [9] is IL-5R α-chain co-expressed with Y421A βc on COS cells (human) (UniProt Q01344). In words: Scatchard (LIGAND) of radio-iodinated IL-5 on COS cells with IL-5R α-chain and Y421A βc; single receptor class.
IL-5R α-chain co-expressed with Y421A βc on COS cells (human), sequence (Q01344 21-420, chain 1 of 2): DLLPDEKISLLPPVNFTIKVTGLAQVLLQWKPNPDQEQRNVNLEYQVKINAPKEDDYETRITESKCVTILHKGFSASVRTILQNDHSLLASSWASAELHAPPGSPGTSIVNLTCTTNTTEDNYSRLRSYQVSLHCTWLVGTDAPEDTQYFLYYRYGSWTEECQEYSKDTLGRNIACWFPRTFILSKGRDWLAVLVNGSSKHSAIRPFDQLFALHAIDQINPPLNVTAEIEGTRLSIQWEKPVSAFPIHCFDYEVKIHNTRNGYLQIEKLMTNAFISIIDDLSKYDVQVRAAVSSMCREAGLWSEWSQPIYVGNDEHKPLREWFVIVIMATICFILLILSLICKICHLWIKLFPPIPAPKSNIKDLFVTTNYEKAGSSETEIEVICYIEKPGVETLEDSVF
IL-5R α-chain co-expressed with Y421A βc on COS cells (human), sequence (P32927 17-897 Y421A, chain 2 of 2, further chain): as the sequence (P32927 17-897 T419A, chain 2 of 2, further chain) above, with A403T, Y405A counted along it
In assay [10] the target is IL-5R α-chain co-expressed with mutant ^418AAAYA^422 βc on COS cells (human) (UniProt Q01344). In words: Scatchard (LIGAND) of radio-iodinated IL-5 on COS cells with IL-5R α-chain and ^418AAAYA^422 βc; single receptor class.
IL-5R α-chain co-expressed with mutant ^418AAAYA^422 βc on COS cells (human), sequence (Q01344 21-420, change not shown, chain 1 of 2): as the sequence (Q01344 21-420, chain 1 of 2) above
IL-5R α-chain co-expressed with mutant ^418AAAYA^422 βc on COS cells (human), sequence (P32927 other isoform, or with tags, fused parts or gaps mutant, chain 2 of 2, further chain): as the sequence (P32927 17-897 T419A, chain 2 of 2, further chain) above, with R402A, G404A, N406A counted along it
In assay [11] the target is T1, IL-3R α-chain expressed on cells without βc (UniProt P26951 19-378, limits assumed).
T1 construct: whole, on cells; also called α-chain only; hIL-3Rα
T1 sequence (P26951 19-378 limits assumed): as the sequence (P26951 19-378, chain 1 of 2) above
The experiment in a line: radioligand saturation binding, COS cells with α-chain only; range of affinities observed.

Assay [12] concerns the target T2, IL-3R α-chain co-expressed with wild type βc on cells (human, UniProt P26951 19-378; P32927 17-897).
T2 construct: whole, on cells; The COS cells carried GM-CSFR and IL-3R α-chains together with βc; also called Wt βc
In words: Scatchard (LIGAND) of 125I-IL-3 on COS cells with α-chains and wild type βc; high affinity site 1, low affinity site fixed at 50 nM.

IL-3R α-chain co-expressed with mutant ^418AAAYA^422 βc on COS cells (human), sequence (P26951 19-378, stated change not applied, chain 1 of 2): as the sequence (P26951 19-378, chain 1 of 2) above
IL-3R α-chain co-expressed with mutant ^418AAAYA^422 βc on COS cells (human), sequence (P32927 other isoform, or with tags, fused parts or gaps mutant, chain 2 of 2, further chain): as the sequence (P32927 17-897 T419A, chain 2 of 2, further chain) above, with R402A, G404A, N406A counted along it
T2 sequence (P26951 19-378, chain 1 of 2): as the sequence (P26951 19-378, chain 1 of 2) above
T2 sequence (P32927 17-897, chain 2 of 2): as the sequence (P32927 17-897 T419A, chain 2 of 2, further chain) above, with A403T counted along it

With “Human interleukin (IL)-3 (from UniProt P08700 20-152) (ligand)”, the Kd in assay [1] worked out at 0.151 nM; in assay [3], 0.511 nM; in [4], 0.113 nM; in [5], 0.196 nM; in assay [6] it was 0.08 nM. The STAT5-L activation (EMSA with STAT5 probe, phosphorimager) in transfected Jurkat cells; concentration for half maximal activation in [2] is over 3 µM. Also, the fold reduction of affinity against wild type high affinity binding in assay [7] amounted to 3 fold. The molecule further registered a fold reduction of high affinity binding against wild type βc in assay [8] of 2 to 3 fold.
Regarding “Human interleukin IL-5 (from UniProt P05113 20-134) (ligand)”, the results for the Kd in assay [9] and in assay [10] were 1.86 nM and 0.71 nM, respectively.

B1: Human interleukin (IL)-3 (ligand, UniProt P08700 20-152, looked up)
chain: APMTQTTPLKTSWVNCSNMIDEIITHLKQPPLPLLDFNNLNGEDQDILMENNLRRPNLEAFNRAVKSLQNASAIESILKNLLPCLPLATAAPTRHPIHIKDGDWNEFRRKLTFYLKTLENAQAQQTTLSLAIF
modifications: radio-iodinated (125I) in the saturation binding studies
notes: unlabelled in the STAT5-L assays on Jurkat cells; also called ^125I-IL-3
As for B1, the Kd is 20 to 100 nM in assay [11] and 0.141 nM in assay [12].
